# Experimental data reported in patent US20130004513A1.
# Target: Human CD4 on CD4+CD25+ regulatory T cells of healthy donors (human) (UniProt P01730)
# Experiment: cell-based or functional assay
substance,measurement,value
Negative control (antibody),% Inh2,7%
same,% Inh3,5.2%
same,Avg. % inhibition,5.1%
